Reference: patent US20110092413A1, “Albumin-Fused Kunitz Domain Peptides” (Novozymes Biopharma DK A/S, priority 2002, published 2011)

Assays:
[1] = target: T1, human neutrophil elastase (Homo sapiens, UniProt P08246); conditions: Table 4, Biological Activity; read-out: Inhibition of human neutrophil elastase, Ki; cited from earlier work
T1 sequence (P08246 30-267): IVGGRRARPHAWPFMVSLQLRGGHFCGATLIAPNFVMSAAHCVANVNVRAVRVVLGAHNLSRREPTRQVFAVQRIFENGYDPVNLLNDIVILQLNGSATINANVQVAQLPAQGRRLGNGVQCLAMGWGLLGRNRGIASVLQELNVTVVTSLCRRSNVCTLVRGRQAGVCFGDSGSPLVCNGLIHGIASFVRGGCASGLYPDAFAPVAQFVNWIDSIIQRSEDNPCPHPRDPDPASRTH

[2] = Pharmacokinetic study in rabbits: plasma clearance of 125I-labeled protein, SEC of plasma
Text: (§1) After radiolabeling, the two labeled protein preparations were purified from unbound label by size exclusion chromatography (SEC). Fractions from the SEC column having the highest radioactivity were pooled. The purified, radiolabeled preparations were characterized for specific activity by scintillation counting and for purity by SEC using a Superose-12 column equipped with an in-line radiation detector.
(§2) New Zealand White rabbits (ca. 2.5 Kg) were used for clearance measurements, with one animal each used for of the two labeled protein preparations. The radiolabeled preparation was injected into the animal via an ear vein. One blood sample was collected per animal per time point with early time points at approximately 0, 7, 15, 30, and 90 minutes and later time points at 4, 8, 16, 24, 48, 72, 96, 144, 168, and 192 hours. Samples (about 0.5 ml) were collected into anticoagulant (EDTA) tubes. Cells were separated from the plasma/serum fraction by centrifugation. The plasma fraction was divided into two aliquots. One plasma aliquot was stored at −70° C. and the other aliquot was kept at 4° C. for immediate analyses. Sample analyses included radiation counting for clearance rate determinations and SEC chromatography for in vivo stability.

[3] = rabbit, in vivo
Text: as §1, §2

human plasma kallikrein = human plasma kallikrein (Homo sapiens, UniProt P03952); assay: DX-88 inhibition of human plasma kallikrein; type: biochemical
human plasma kallikrein, sequence (P03952 391-638 limits assumed): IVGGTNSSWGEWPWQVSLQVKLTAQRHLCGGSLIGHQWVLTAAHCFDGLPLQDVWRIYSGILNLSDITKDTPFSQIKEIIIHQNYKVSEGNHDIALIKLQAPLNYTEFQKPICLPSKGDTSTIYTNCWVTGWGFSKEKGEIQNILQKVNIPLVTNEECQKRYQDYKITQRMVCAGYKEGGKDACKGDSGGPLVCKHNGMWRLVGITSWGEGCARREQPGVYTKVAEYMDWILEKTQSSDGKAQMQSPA
human plasma kallikrein, sequence (P03952 20-390 partner limits assumed): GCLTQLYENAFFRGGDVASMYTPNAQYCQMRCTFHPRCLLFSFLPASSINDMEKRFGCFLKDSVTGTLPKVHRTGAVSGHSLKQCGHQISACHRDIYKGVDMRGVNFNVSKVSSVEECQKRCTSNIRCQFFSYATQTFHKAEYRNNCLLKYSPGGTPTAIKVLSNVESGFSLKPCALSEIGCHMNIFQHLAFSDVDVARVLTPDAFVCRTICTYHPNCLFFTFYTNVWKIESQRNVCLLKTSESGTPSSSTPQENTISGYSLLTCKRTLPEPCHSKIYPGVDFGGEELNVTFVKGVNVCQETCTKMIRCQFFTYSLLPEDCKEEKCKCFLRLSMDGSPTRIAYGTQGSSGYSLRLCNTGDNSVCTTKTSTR

[4] = DX-88 tested in the clinic for treatment of hereditary angioedema (HAE); type: in vivo, human
Serum half-time of DX-88 = conditions: in vivo
Pseudomonas aeruginosa = conditions: rat model of CF, after seven days of treatment (Cantin and Woods 1999); cited from earlier work
[5] = about 840 mg BPTI, 80 open-heart surgery patients (Fraedrich et al.); cited from earlier work

DX-890: Kunitz domain peptide, inhibitor of human neutrophil elastase, SEQ ID NO:20 (EACNLPIVRGPCIAFFPRWAFDAVKGKCVLFPYGGCQGNGNKFYSEKECREYCGVP; Description of Sequence DX-890 Kunitz domain peptide)
Ki [1]: ~0.005 nM | in vivo stability by SEC analysis of plasma ([2]; FIG. 6): relatively rapid association of label with higher molecular weight plasma components | T1/2β ([2]; restated in hours): 2.75 h | % α [3]: 75% | % β [3]: 25%

DX-88: Kunitz domain derived from the first Kunitz domain of human LACI, inhibits human plasma kallikrein, SEQ ID NO:48 (EAMHSFCAFKADDGPCRAAHPRWFFNIFTRQCEEFIYGGCEGNQNRFESLEECKKMCTRD; Description of Sequence DX-88 Kunitz domain peptide)
Ki (human plasma kallikrein): ~0.04 nM | initial clinical data in HAE [4]: safe and effective | serum half-time (Serum half-time of DX-88): not more than 1 hour

alpha1 antitrypsin
bacterial counts (Pseudomonas aeruginosa): 0.2±0.4

bovine pancreatic trypsin inhibitor [BPTI]
decrease of mean amount transfused [5]: 74% | reduction of blood loss [5]: almost half
